Measurements published in patent US5851983A, “Elastase inhibitory polypeptide and process for production thereof by recombinant gene technology” (Teijin Limited, priority 1987, dated 1998).

Legend:
Type in all cases: biochemical
[1] = target: T1, polymorphonuclear leucocyte elastase from human sputum (Homo sapiens, UniProt P08246); assay: Assay for elastase inhibitor activity (Example 24); conditions: enzyme 2 × 10^-8 M, substrate 3.0 × 10^-4 M
T1 construct: Polymorphonuclear leukocyte elastase from human sputum (EPC Co; Funakoshi Yakuhin); purchased EPC Co. (via Funakoshi Yakuhin); host or cells: human sputum
T1 sequence (P08246 30-267): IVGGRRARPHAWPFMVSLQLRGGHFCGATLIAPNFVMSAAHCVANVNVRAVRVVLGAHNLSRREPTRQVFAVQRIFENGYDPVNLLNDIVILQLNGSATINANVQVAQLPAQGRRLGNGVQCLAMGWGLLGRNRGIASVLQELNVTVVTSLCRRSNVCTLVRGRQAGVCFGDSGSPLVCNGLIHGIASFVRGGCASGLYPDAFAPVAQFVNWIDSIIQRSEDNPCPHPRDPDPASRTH
Experimental: (§1) The following assay method was used.
(§2) Buffer: 0.1M (2-hydroxyethyl)piperazine-N'-2-ethansulfonic acid (HEPES), 0.5M NaCl, pH 7.5.
(§3) Enzyme concentration: the following enzyme was dissolved in the above-mentioned buffer to a concentration 9 times that shown in Table 12.
(§4) A. Polymorphonuclear leucocyte elastase from human sputum (EPC Co., Funakoshi Yakuhin)
Substrate solution: for the enzymes A, B, C, D and E, the following substrate a, b, c, d or e, respectively, was dissolved in a solution of DMSO+the above-mentioned buffer (1:9) (note, final concentration of DMSO was 10% in the buffer) to a concentration of 9 times that shown in Table 12.
(§5) a. MeO-Suc-Ala-Ala-Pro-Val-pNA (Bachem) […]
(§6) To wells of an ELISA 96-well microtiter plate, were added 120 μl of the buffer and the 20 μl of a sample solution of (Arg^59 -Ala^107) SLPI obtained in Example 23, followed by 20 μl of the enzyme solution. The mixture was reacted at 37° C. for 10 minutes. Next, 20 μl of the substrate was added, and developed at 37° C. The developed color was measured by absorption at 405 nm.
(§7) As a control the same procedure was carried out using SLPI.

Bovine spleen trypsin = target: T2, Bovine spleen trypsin (Bos taurus, UniProt P00760); assay: Assay for trypsin inhibitor activity (Example 24); conditions: enzyme 2 × 10^-7 M, substrate 1.0 × 10^-3 M
T2 construct: purchased Sigma
T2 sequence (P00760 24-246): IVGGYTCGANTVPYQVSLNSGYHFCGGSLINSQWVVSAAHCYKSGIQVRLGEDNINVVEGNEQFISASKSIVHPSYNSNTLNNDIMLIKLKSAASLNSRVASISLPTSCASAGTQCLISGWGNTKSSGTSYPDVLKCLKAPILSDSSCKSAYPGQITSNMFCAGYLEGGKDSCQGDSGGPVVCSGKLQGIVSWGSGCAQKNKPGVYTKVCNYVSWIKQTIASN
Experimental: as §1, §2, §3
B. Bovine spleen trypsin (Sigma)
Substrate solution: for the enzymes A, B, C, D and E, the following substrate a, b, c, d or e, respectively, was dissolved in a solution of DMSO+the above-mentioned buffer (1:9) (note, final concentration of DMSO was 10% in the buffer) to a concentration of 9 times that shown in Table 12. […]
as §6, §7

Human plasma thrombin [2] = target: T3, Human plasma thrombin (Homo sapiens, UniProt P00734); assay: Assay for thrombin inhibitory activity (Example 25); conditions: final concentration up to ×10^-5 M; enzyme 3 × 10^-9 M
T3 construct: (5) Human plasma thrombin (Kabi, Daiichi Kagaku Yakuhin); purchased Kabi (via Daiichi Kagaku Yakuhin); host or cells: human plasma
Experimental: F. Human plasma thrombin (Sigma)
(§8) Buffer: Buffer solution for each enzyme is as follow. Thrombin and FXa: 50 mM Tris-HCl, 7.5 mM EDTA-2Na, 175 mM NaCl (pH 8.4) […]
(§9) Substrate solution: for the enzymes F, G, H and I, the following substrate f, g, h or i, respectively, was dissolved to a final concentration shown in Table 14.
f. H.D-Phe-Pip-Arg-pNA (Kabi Vitrum)
(§10) To wells of an ELISA 96-well microtiter plate, were added a solution of (Arg^59 -Ala^107) SLPI obtained in Example 23 and then the enzyme solution, and the mixture was incubated at 37° C. for 10 minutes. Next, the substrate solution was added to develop the color, whose absorption was then measured at 405 nm. As a control, SLPI was used.

Human plasma plasmin [3] = target: T4, Human plasma plasmin (Homo sapiens, UniProt P00747); assay: Assay for plasmin inhibitory activity (Example 25); conditions: final concentration up to ×10^-5 M; enzyme 1.0 × 10^-7 M
T4 construct: (6) Human plasma plasmin (Kabi, Daiichi Kagaku Yakuhin); purchased Kabi (via Daiichi Kagaku Yakuhin); host or cells: human plasma
T4 sequence (P00747 581-810 limits assumed): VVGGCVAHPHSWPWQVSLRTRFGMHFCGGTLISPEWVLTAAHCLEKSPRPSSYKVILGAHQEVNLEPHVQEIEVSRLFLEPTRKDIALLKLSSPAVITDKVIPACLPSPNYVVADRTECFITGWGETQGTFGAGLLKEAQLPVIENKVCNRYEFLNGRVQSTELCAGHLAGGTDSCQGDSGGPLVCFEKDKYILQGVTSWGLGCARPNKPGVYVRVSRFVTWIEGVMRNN
T4 sequence (P00747 97-580 partner limits assumed): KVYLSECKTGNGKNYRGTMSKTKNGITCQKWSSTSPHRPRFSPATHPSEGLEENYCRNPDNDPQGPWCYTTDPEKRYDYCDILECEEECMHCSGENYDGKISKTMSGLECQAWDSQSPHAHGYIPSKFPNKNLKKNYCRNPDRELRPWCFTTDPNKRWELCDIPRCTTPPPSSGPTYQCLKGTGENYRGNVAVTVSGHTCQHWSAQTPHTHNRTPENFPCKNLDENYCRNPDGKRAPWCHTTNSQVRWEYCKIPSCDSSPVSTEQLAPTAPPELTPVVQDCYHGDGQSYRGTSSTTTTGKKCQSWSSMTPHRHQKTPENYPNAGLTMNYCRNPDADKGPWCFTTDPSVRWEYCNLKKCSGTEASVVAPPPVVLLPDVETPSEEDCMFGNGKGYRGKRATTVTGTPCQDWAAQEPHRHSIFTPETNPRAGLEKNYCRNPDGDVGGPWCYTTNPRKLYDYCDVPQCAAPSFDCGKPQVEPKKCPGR
Experimental: G. Human plasma plasmin (sigma)
Plasmin: 50 mM Tris-HCl, 100 mM NaCl (pH 7.4) […]
as §9
g. H.D-Val-Leu-Lys-pNA (Kabi Vitrum)
as §10

Human plasma kallikrein [4] = target: T5, Human plasma kallikrein (Homo sapiens, UniProt P03952); assay: Assay for kallikrein inhibitory activity (Example 25); conditions: final concentration up to ×10^-5 M; enzyme 1.0 × 10^-7 M
T5 construct: (7) Human plasma kallikrein (Kabi, Daiichi Kagaku Yakuhin); purchased Kabi (via Daiichi Kagaku Yakuhin); host or cells: human plasma
T5 sequence (P03952 391-638 limits assumed): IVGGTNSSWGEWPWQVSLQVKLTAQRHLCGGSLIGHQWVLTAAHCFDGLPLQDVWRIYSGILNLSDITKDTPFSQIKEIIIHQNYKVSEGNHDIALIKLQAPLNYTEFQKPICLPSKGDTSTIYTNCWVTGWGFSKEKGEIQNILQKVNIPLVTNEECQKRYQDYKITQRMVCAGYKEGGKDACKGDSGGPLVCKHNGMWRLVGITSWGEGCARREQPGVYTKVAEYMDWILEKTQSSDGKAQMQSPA
T5 sequence (P03952 20-390 partner limits assumed): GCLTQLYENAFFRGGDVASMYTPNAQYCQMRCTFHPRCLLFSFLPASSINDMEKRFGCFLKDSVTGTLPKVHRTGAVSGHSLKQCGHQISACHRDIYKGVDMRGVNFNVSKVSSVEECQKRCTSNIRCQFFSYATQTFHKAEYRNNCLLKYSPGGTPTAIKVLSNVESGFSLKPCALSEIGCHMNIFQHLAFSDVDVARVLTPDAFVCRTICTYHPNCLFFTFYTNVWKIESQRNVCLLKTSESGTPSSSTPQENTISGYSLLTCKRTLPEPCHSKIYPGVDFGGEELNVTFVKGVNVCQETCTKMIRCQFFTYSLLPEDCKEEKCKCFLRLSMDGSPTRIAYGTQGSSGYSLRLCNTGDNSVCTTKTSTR
Experimental: H. Human plasma kallikrein (Protogene, Funakoshi Yakuhin)
Kallikrein: 50 mM Tris-HCl, 361 mM NaCl, 0.01 mg/ml polybrene (pH 7.8) […]
as §9
h. H.D-Pro-Phe-Arg-pNA (Kabi Vitram)
as §10

Porcine FXa = assay: Assay for Fxa inhibitory activity (Example 25); conditions: final concentration up to ×10^-5 M; enzyme 1.0 × 10^-8 M
Experimental: I. Porcine FXa (Daichi Seiyaku)
as §8, §9
i. Ratio 1:1 mixture of the following compounds: [drawing 5]
as §10

[5] = tested on: polymorphonuclear leucocyte elastase from human sputum; assay: Inhibitory constant (Ki) assay, elastase (Example 26); conditions: from Table 16
Experimental: Method for assay is as follow.
Buffer: 0.1M N-(2-hydroxyethyl)piperazine-N'-2-ethanesulfonic acid (HEPES), 1.0M NaCl, 0.1% polyethylene glycol (pH 7.5)
Enzyme solution: the following enzyme was dissolved in the above-mentioned buffer to a concentration 9 times that shown in Table 15.
as §4
Substrate solution: for the enzymes A and B, the following substrate a or b was dissolved in a solution of DMSO+the above-mentioned buffer (1:9), or in DMSO, respectively.
as §5
To wells of an ELISA 96-well microtiter plate, were added 120 μl of the buffer, 20 μl of a sample solution of (Arg^59 -Ala^107) SLPI obtained in Example 23, and 20 μl of the enzyme solution in this order, an the mixture was reacted at 37° C. for 1 hour. Next, 20 μl of the substrate was added to develop at 25° C. Absorption of the developed color was measured at 405 nm. As a control, SLPI was used.
On the basis of the result thus obtained, an inhibitory constant (Ki) of (Arg^59 -Ala^107) SLPI of the present invention was calculated according to the method of Henderson (Henderson, P. J. F. (1972), Biochem. J. 127, 321-333).

[6] = target: T6, polymorphonuclear leukocyte elastase from human sputum (Homo sapiens, UniProt P08246); assay: Serine protease inhibitory assay, Example 12: human elastase; conditions: read-out: concentration of inhibitory protein which exhibits a 50% inhibition; enzyme 10^-9 M; MeO-Suc-Ala-Ala-Pro-Val-pNA 0.3 mM; 37° C.
T6 construct: Polymorphonuclear leukocyte elastase from human sputum (EPC Co; Funakoshi Yakuhin); purchased EPC Co. (via Funakoshi Yakuhin); host or cells: human sputum
T6 sequence (P08246 30-267): T1 sequence (P08246 30-267)
Experimental: (§11) To each well of a 96-well ELISA microplate were added 140 μl of the above-mentioned buffer, 20 μl of a test solution, and 20 μl of the enzyme solution, and the mixture was stirred at 37° C. for 30 minutes. Next, 20 μl of the substrate solution was added to the well, the mixture was stirred at 37° C. for one hour to develop same, and the absorbance at 405 nm was measured.

Calf pancreatic trypsin = target: T7, Calf pancreatic trypsin (Bos taurus, UniProt P00760); assay: Serine protease inhibitory assay, Example 12: trypsin; conditions: read-out: concentration of inhibitory protein which exhibits a 50% inhibition; enzyme 10^-7 M; Bz-Arg-pNA 1.0 mM; 37° C.
T7 construct: (2) Calf pancreatic trypsin (Sigma); purchased Sigma; host or cells: calf pancreas
T7 sequence (P00760 24-246): T2 sequence (P00760 24-246)
Experimental: (§12) Assay of serine protease inhibitory activity of active-type (Asn^55 -Ala^107) SLPI fragment polypeptide
(§13) The active-type (Asn^55 -Ala^107) SLPI fragment polypeptide obtained by refolding by the procedure shown in Example 11 as measured to determine its inhibitory activity to various serine proteases. The assay result thereof is shown as follows.
(§14) Enzyme solution: The following enzymes were dissolved in the above-mentioned buffer solutions at a concentration ten-times higher than the concentration shown in Table 4.
(2) Calf pancreatic trypsin (Sigma)
(§15) Substrate solution: For the above-mentioned enzymes (1) to (7), the following substrates (1) to (7), respectively, were dissolved in dimethyl sulfoxyde to a concentration of 10 mM to prepare stock solutions, which were then dissolved in the above-mentioned buffer solution to concentration ten-times higher than final concentrations, to prepare substrate solutions. […]
as §11
Moreover, an inhibitory constant Ki of the present (Asn^55 -Ala^107) SLPI was calculated on the basis of the above data by a method of Dixon, M. and Webb, E. C. (1979), Enzyme, Longman or a method of Henderson, P. J. F. (1972) Biochem. J., 127, 321-333.

[7] = target: T8, Calf pancreatic chymotrypsin (Bos taurus, UniProt P00766); assay: Serine protease inhibitory assay, Example 12: chymotrypsin; conditions: read-out: concentration of inhibitory protein which exhibits a 50% inhibition; enzyme 10^-8 M; Suc-Ala-Ala-Pro-Phe-pNA 0.1 mM; 37° C.
T8 construct: (3) Calf pancreatic chymotrypsin (Sigma); purchased Sigma; host or cells: calf pancreas
Experimental: as §12, §13, §14
(3) Calf pancreatic chymotrypsin (Sigma)
as §15, §11

[8] = target: T9, Porcine pancreatic elastase (Sus scrofa, UniProt P00772); assay: Serine protease inhibitory assay, Example 12: porcine elastase; conditions: read-out: concentration of inhibitory protein which exhibits a 50% inhibition; enzyme 6 × 10^-9 M; Suc-Ala-Ala-Ala-pNA 0.1 mM; 37° C.
T9 construct: (4) Porcine pancreatic elastase (Sigma); purchased Sigma; host or cells: porcine pancreas
T9 sequence (P00772 27-266): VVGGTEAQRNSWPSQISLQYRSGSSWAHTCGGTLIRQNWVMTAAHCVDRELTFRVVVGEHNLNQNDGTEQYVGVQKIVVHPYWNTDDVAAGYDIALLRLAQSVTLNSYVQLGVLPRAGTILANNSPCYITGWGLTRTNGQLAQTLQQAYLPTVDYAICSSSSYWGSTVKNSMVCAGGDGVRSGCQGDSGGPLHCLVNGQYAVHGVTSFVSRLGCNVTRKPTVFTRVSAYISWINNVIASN
Experimental: as §12, §13, §14
(4) Porcine pancreatic elastase (Sigma)
as §15, §11

Human plasma thrombin [9] = target: T3, Human plasma thrombin; assay: Serine protease inhibitory assay, Example 12: thrombin; conditions: read-out: concentration of inhibitory protein which exhibits a 50% inhibition; enzyme 10^-11 M; H-D-Phe-Pip-Arg-pNA 0.1 mM; 37° C.
Experimental: as §12, §13, §14
(5) Human plasma thrombin (Kabi, Daiichi Kagaku Yakuhin)
as §15, §11

Human plasma plasmin [10] = target: T4, Human plasma plasmin; assay: Serine protease inhibitory assay, Example 12: plasmin; conditions: read-out: concentration of inhibitory protein which exhibits a 50% inhibition; enzyme 10^-8 M; H-D-Val-Leu-Lys-pNA 0.1 mM; 37° C.
Experimental: as §12, §13, §14
(6) Human plasma plasmin (Kabi, Daiichi Kagaku Yakuhin)
as §15, §11

Human plasma kallikrein [11] = target: T5, Human plasma kallikrein; assay: Serine protease inhibitory assay, Example 12: kallikrein; conditions: read-out: concentration of inhibitory protein which exhibits a 50% inhibition; enzyme 10^-8 M; H-D-Pro-Phe-Arg-pNA 0.1 mM; 37° C.
Experimental: as §12, §13, §14
(7) Human plasma kallikrein (Kabi, Daiichi Kagaku Yakuhin)
as §15, §11

IC50 [1] [nM]	IC50 (Bovine spleen trypsin) [nM]	inhibitory activity to thrombin (Human plasma thrombin [2])	inhibitory activity to plasmin (Human plasma plasmin [3])	inhibitory activity to kallikrein (Human plasma kallikrein [4])	relative ratio of inhibitory activity on trypsin to that on elastase (Ki(T)/Ki(E)) [5]	IC50 [6] [nM]	IC50 (Calf pancreatic trypsin) [nM]	IC50 [7] [nM]	IC50 [8] [nM]	IC50 (Human plasma thrombin [9]) [nM]	IC50 (Human plasma plasmin [10]) [nM]	IC50 (Human plasma kallikrein [11]) [nM]	Substance	inhibitory activity to FXa (Porcine FXa)
12	2000	did not exhibit inhibitory activity	did not exhibit inhibitory activity	did not exhibit inhibitory activity	about 14,000	–	–	–	–	–	–	–	(Arg^59 -Ala^107) SLPI: polypeptide having an amino acid sequence starting with the 59th Arg and ending at the 107th Ala of SLPI (RKPGKCPVTYGQCLMLNPPNFCEMDGQCKRDLKCCMGMCGKSCVSPVKA)	did not exhibit inhibitory activity
–	–	–	–	–	–	300	100	50	> 2000	> 2000	5	70	Aprotinin	–
–	–	–	–	–	–	–	200	2000	300	> 2000	> 2000	> 2000	α1 -PI: α1 -AT (Sigma), inhibitory protein used as a positive control	–
